The results in this text go back to paper PMC10875621.

This assay has as its target netrin-1 (UniProt O95631).

In the case of “DCC-HaloTag (from UniProt P43146 26-1447) (receptor)”, the percent of DCC-HaloTag speckles in grip (immobile) phase in growth-cone filopodia of hippocampal neurons on netrin-1-coated substrate, TIRF speckle imaging (15% grip on polylysine alone) stood at 40%.
